Experimental data from patent publication EP1354598A2 (ZymoGenetics, Inc., dated 2003).
Blank lines part the entries; values can stand above or below the binder they belong to.

What was measured:
soluble I^125-ztnf4 = molecular target: T1, soluble I^125-ztnf4 (human, UniProt Q9Y275 134-285, limits assumed, 125I-labelled); assay: Scatchard analysis of soluble 125I-ztnf4 on stable BHK transfectants expressing BCMA
T1 construct: also called ztnf4 sol; neutrokine alpha

soluble ztnf4 (human) = soluble ztnf4 (human) (UniProt Q9Y275); assay: cell-based or functional assay

Kd (soluble I^125-ztnf4): 1.25 nM
B1: BCMA (SEQ ID NO:8) (receptor)
chain: MLQMAGQCSQNEYFDSLLHACIPCQLRCSSNTPPLTCQRYCNASVTNSVKGTNAILWTCLGLSLIISLAVFVLMFLLRKISSEPLKDEFKNTGSGLLGMANIDLEKSRTGDEIILPRGLEYTVEECTCEDCIKSKPKVDSDHCFPLPAMEEGATILVTTKTNDYCKSLPAALSATEIEKSISAR
notes: also called BCMA-BHK

inhibition of soluble ztnf4-stimulated human B cell proliferation (3H thymidine, with IL-4) (fold molar excess) (soluble ztnf4 (human)): 10
B2: TACI-Ig soluble receptor (TACI-Fc4 fusion protein) (Fc fusion, part only; not given: Fc4 part, part only)
chain, part: MSGLGRSRRGGRSRVDQEERFPQGLWTGVAMRSCPEEQYWDPLLGTCMSCKTICNHQSQRTCAAFCRSLSCRKEQGKFYDHLLRDCISCASICGQHPKQCAYFCENKLRSPVNLPPELRRQRSGEVENNSDNSGRYQGLEHRGSEASPALPGLKLSADQVALVYS
